{"source": "patent US20130078234A1", "about": "(Daiichi Sankyo, published 2013)", "binders": {"B1": {"name": "M30 antibody (mouse anti-human B7-H3 monoclonal antibody produced by B7-H3 hybridoma M30) (antibody, mouse IgG2a, kappa)", "heavy": "EVQLQQSGPELVKPGASVKMSCKASGYTFTNYVMHWVKQKPGQGLEWIGYINPYNDDVKYNEKFKGKATQTSDKSSSTAYMELSSLTSEDSAVYYCARWGYYGSPLYYFDYWGQGTTLTVSSAKTTAPSVYPLAPVCGDTTGSSVTLGCLVKGYFPEPVTLTWNSGSLSSGVHTFPAVLQSDLYTLSSSVTVTSSTWPSQSITCNVAHPASSTKVDKKIEPRGPTIKPCPPCKCPAPNLLGGPSVFIFPPKIKDVLMISLSPIVTCVVVDVSEDDPDVQISWFVNNVEVHTAQTQTHREDYNSTLRVVSALPIQHQDWMSGKEFKCKVNNKDLPAPIERTISKPKGSVRAPQVYVLPPPEEEMTKKQVTLTCMVTDFMPEDIYVEWTNNGKTELNYKNTEPVLDSDGSYFMYSKLRVEKKNWVERNSYSCSVVHEGLHNHHTTKSFSRTPGK", "light": "QIVLSQSPTILSASPGEKVTMTCRASSRLIYMHWYQQKPGSSPKPWIYATSNLASGVPARFSGSGSGTSYSLTISRVEAEDAATYYCQQWNSNPPTFGTGTKLELKRADAAPTVSIFPPSSEQLTSGGASVVCFLNNFYPKDINVKWKIDGSERQNGVLNSWTDQDSKDSTYSMSSTLTLTKDEYERHNSYTCEATHKTSTSPIVKSFNRNEC", "notes": "Mouse IgG2a, kappa; Used as hybridoma culture supernatant in the flow cytometry and as purified antibody in SPR and ELISA; also called mouse antibody M30"}}, "key": {"[1]": {"molecular_target": "T1, CD80 (B7 family protein, on transfected 293T cells) (Homo sapiens (Human), UniProt P33681 35-288)", "T1 sequence": "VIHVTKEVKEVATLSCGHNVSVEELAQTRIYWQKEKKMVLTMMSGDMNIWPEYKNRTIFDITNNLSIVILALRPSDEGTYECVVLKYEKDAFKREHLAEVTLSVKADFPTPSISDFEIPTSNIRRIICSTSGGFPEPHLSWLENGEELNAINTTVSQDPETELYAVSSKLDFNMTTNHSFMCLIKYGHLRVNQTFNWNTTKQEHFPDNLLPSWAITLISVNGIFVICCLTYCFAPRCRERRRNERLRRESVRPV", "test": "flow cytometry on transfected 293T cells"}, "[2]": {"molecular_target": "T2, CD86 (B7 family protein, on transfected 293T cells) (Homo sapiens (Human), UniProt P42081 24-329)", "T2 sequence": "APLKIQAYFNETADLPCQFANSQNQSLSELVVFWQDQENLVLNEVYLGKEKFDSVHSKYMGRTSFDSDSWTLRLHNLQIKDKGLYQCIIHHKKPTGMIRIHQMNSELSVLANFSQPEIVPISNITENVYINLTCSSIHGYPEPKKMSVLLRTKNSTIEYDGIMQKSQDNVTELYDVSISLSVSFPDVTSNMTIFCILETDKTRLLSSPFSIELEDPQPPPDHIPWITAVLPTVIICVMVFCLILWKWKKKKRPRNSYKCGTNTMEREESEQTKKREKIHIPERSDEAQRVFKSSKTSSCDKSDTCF", "test": "flow cytometry on transfected 293T cells"}, "[3]": {"molecular_target": "T3, B7RP-1 (B7 family protein, on transfected 293T cells) (Homo sapiens (Human), UniProt O75144 19-302)", "T3 sequence": "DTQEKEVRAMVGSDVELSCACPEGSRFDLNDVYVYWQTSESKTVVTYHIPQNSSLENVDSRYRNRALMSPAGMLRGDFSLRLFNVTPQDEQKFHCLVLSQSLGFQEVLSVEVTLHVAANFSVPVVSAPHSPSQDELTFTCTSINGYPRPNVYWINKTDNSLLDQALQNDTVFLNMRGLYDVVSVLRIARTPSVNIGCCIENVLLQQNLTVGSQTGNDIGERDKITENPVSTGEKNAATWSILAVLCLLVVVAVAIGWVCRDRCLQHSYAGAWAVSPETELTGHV", "test": "flow cytometry on transfected 293T cells"}, "[4]": {"molecular_target": "B7-H1 (B7 family protein, on transfected 293T cells) (Homo sapiens (Human), UniProt Q9NZQ7 19-290)", "sequence (Q9NZQ7 19-290 limits assumed)": "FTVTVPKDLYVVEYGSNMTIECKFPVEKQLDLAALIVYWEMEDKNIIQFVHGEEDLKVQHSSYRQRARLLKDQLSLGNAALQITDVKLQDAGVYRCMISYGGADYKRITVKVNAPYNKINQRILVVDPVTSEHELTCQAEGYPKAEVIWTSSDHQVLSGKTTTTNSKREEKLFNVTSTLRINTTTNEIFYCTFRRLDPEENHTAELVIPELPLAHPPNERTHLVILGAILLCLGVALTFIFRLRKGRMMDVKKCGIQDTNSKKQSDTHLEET", "test": "flow cytometry on transfected 293T cells"}, "[5]": {"molecular_target": "T4, B7-H4 (B7 family protein, on transfected 293T cells) (Homo sapiens (Human), UniProt Q7Z7D3 25-282)", "T4 sequence": "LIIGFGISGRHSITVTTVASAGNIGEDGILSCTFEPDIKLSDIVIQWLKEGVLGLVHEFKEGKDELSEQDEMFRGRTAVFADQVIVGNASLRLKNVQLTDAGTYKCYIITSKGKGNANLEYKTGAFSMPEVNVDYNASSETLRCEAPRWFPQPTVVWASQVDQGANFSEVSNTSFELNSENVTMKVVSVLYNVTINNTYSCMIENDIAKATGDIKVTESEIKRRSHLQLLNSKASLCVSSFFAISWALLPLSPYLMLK", "test": "flow cytometry on transfected 293T cells"}, "[6]": {"molecular_target": "T5, extracellular domain polypeptide of a recombinant B7-H3 variant 2 antigen (R&D Systems, Inc., #2318-B3-050/CF) (human, UniProt Q5ZPR3 29-466)", "T5 construct": "Bought recombinant protein; also called recombinant B7-H3 antigen; B7-H3 antigen", "T5 sequence": "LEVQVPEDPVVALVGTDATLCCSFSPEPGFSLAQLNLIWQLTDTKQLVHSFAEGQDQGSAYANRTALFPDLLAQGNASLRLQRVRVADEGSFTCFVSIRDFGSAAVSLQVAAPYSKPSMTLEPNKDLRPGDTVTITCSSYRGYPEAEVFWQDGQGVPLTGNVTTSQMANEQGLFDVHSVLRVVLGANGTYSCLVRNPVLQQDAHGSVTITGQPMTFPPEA", "test": "SPR, antibody captured on immobilized anti-mouse IgG, B7-H3 variant 2 extracellular domain as analyte; M30 mouse antibody, captured on anti-mouse IgG", "experimental": "The affinity between the M30 antibody or the cM30 antibody and the B7-H3 antigen was measured by a surface plasmon resonance (SPR) device (GE Healthcare Corporation). According to a common procedure, an anti-mouse IgG or an anti-human IgG antibody was immobilized on a sensor chip, and then, the M30 antibody sample or the cM30 antibody was bound thereto. Thereafter, an extracellular domain polypeptide of a recombinant B7-H3 variant 2 antigen (manufactured by R&D Systems, Inc., #2318-B3-050/CF) was added thereto at different concentrations, and the amount of the antigen bound to the antibody in a running buffer (phosphate buffer, 0.05% SP20) was measured over time. The measured amount was analyzed with a dedicated software (BIAevaluation Version 4.1, GE Healthcare Corporation) and a dissociation constant was calculated."}, "[7]": {"molecular_target": "T6, B7-H3 IgV1 (B7-H3 partial protein, on transfected NIH-3T3 cells) (human, UniProt Q5ZPR3 27-534)", "T6 construct": "expressed on cells from pFLAG-myc-CMV-19-DEST; leader or tag from the vector not described", "T6 sequence": "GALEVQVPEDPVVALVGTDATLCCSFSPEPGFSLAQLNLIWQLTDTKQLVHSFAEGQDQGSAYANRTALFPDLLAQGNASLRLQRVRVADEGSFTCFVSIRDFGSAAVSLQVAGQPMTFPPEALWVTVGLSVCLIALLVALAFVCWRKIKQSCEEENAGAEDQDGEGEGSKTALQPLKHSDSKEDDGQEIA", "test": "flow cytometry on NIH-3T3 cells transfected with the B7-H3 IgV1 expression vector; fluorescein anti-mouse IgG secondary; FL1 Log histogram", "experimental": "(§1) The binding specificity, for B7-H3, of the antibody produced by the hybridoma which immunoprecipitated the B7-H3 variant 1 identified by MS was confirmed by a flow cytometric method. The cell suspension prepared in Example 3)-2 was centrifuged, and the supernatant was removed. Then, the hybridoma culture supernatant was added to the NIH-3T3 cells transfected with each vector to suspend the cells, and the cells were left to stand at 4° C. for 1 hour.\n(§2) It was examined as to which domain of B7-H3 the M30 binds by a flow cytometric method in the same manner as in Example 3)-3. The NIH-3T3 cells transfected with each of the expression vectors for B7-H3 partial proteins prepared in Example 1)-1-3 were used."}, "[8]": {"molecular_target": "T7, B7-H3 IgV2 (B7-H3 partial protein, on transfected NIH-3T3 cells) (human, UniProt Q5ZPR3 245-534)", "T7 construct": "expressed on cells from pFLAG-myc-CMV-19-DEST; leader or tag from the vector not described", "T7 sequence": "T6 sequence with L3V, C23R, A54T, Q57R", "test": "flow cytometry on NIH-3T3 cells transfected with the B7-H3 IgV2 expression vector; fluorescein anti-mouse IgG secondary; FL1 Log histogram", "experimental": "as §1, §2"}, "[9]": {"molecular_target": "T5, extracellular domain polypeptide of a …", "test": "competition ELISA on plate-coated B7-H3 variant 2 extracellular domain polypeptide; competitor biotinylated M30 (bM30, 5 ug/ml), detected with streptavidin-HRP, OD 450 nm", "experimental": "Each of the extracellular domain polypeptide of the B7-H3 variant 1 (manufactured by R&D Systems, Inc., #1949-B3-050/CF) and the extracellular domain polypeptide of the B7-H3 variant (manufactured by R&D Systems, Inc., #2318-B3-050/CF) was diluted to 0.5 μg/ml with a coating buffer and the resulting solution was dispensed at 100 μL/well in an immunoplate (manufactured by Nunc, Inc., #442404). Then, the plate was left to stand overnight at 4° C., whereby the protein was adsorbed to the plate. On the next day, an assay diluent was dispensed at 200 μL/well, and the plate was left to stand at room temperature for 4 hours."}}, "note": "Residue numbers refer to the chain shown, from its start."}
{"binder": "B1", "values": [{"measurement": "binding result", "setting": "[1]", "value": "no binding"}, {"measurement": "binding result", "setting": "[2]", "value": "no binding"}, {"measurement": "binding result", "setting": "[3]", "value": "no binding"}, {"measurement": "binding result", "setting": "[4]", "value": "no binding"}, {"measurement": "binding result", "setting": "[5]", "value": "no binding"}, {"measurement": "Kd", "setting": "[6]", "value": 5.89, "unit": "nM"}, {"measurement": "binding result", "setting": "[7]", "value": "no binding"}, {"measurement": "binding result", "setting": "[8]", "value": "no binding"}, {"measurement": "IC50 (read off the curve)", "setting": "[9]", "value": "~0.5", "unit": "µg/mL"}]}
